Test results as given in PMC11443083.
Residue numbers refer to the chain shown, from its start.

Legend:
[1] = biological target: T1, PAR1 receptor (1–425 amino acids) Y350A (human) (UniProt P25116)
T1 sequence: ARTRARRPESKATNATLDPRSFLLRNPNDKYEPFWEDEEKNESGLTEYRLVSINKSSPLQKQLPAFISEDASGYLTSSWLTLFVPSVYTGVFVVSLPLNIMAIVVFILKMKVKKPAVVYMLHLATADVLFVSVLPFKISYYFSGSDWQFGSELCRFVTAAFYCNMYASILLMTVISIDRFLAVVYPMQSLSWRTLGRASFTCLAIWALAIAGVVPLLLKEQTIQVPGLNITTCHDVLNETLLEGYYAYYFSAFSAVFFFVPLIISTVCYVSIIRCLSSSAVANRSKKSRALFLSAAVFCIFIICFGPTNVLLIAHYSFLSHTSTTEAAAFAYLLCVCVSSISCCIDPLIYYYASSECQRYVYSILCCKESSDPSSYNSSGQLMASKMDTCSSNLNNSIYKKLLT

[2] = biological target: T2, PAR1 receptor (1–425 amino acids) D256A (human) (UniProt P25116)
T2 sequence: T1 sequence with D235A, A329Y

B1: Synthesized TA peptide (SFLLRN) (peptide)
peptide: SFLLRN
For B1, the NanoBiT Gαq–Gγ dissociation in HEK293T cells induced by the synthesized TA peptide; fold decrease of potency against WT PAR1 [1] was 158 fold and the NanoBiT Gαq–Gγ dissociation in HEK293T cells induced by the synthesized TA peptide; fold decrease of potency against WT PAR1 [2] was 33 fold.
